Reference: article PMC8450099
Like-named read-outs stand apart in the source and are kept apart here.

Key:
Test in all cases: MST
Mlh1;Pms1 [1] = molecular target: T1, Mlh1;Pms1 (Saccharomyces cerevisiae (baker's …, UniProt P38920;P14242 1-769;1-873, |))
[2] = molecular target: T2, Mlh1-FRB355,FKBP464 (Complex #1 subunit);Pms1 (Saccharomyces cerevisiae (baker's …, UniProt P38920;P14242 1-355+=[…]+356-464+=GS+P62942:2-108+=GS+465-769;1-873, internal_change|)
[3] = molecular target: T3, Mlh1-FKBP464 (Complex #2 subunit);Pms1-FRB627 (Complex #2 subunit) (Saccharomyces cerevisiae (baker's …, UniProt P38920;P14242 1-464+=GS+P62942:2-108+=GS+465-769;1-627+=[…]+628-873, internal_change|internal_change)
Mlh1;Pms1 [4] = molecular target: T1, Mlh1;Pms1; remark: listed apart in the source
[5] = molecular target: T4, Mlh1-FRB355 (Complex #5 subunit);Pms1-FKBP460 (Complex #5 subunit) (Saccharomyces cerevisiae (baker's …, UniProt P38920;P14242 1-355+=[…]+356-769;1-460+=GS+P62942:2-108+=GS+461-873, internal_change|internal_change)
[6] = molecular target: T2, Mlh1-FRB355,FKBP464 (Complex #1 …); remark: listed apart in the source
[7] = molecular target: T3, Mlh1-FKBP464 (Complex #2 …); remark: listed apart in the source
Mlh1;Pms1 [8] = molecular target: T1, Mlh1;Pms1; remark: listed apart in the source
[9] = molecular target: T4, Mlh1-FRB355 (Complex #5 …); remark: listed apart in the source
[10] = molecular target: T2, Mlh1-FRB355,FKBP464 (Complex #1 …); remark: listed apart in the source
[11] = molecular target: T3, Mlh1-FKBP464 (Complex #2 …); remark: listed apart in the source
Mlh1;Pms1 [12] = molecular target: T1, Mlh1;Pms1; remark: listed apart in the source
[13] = molecular target: T3, Mlh1-FKBP464 (Complex #2 …); remark: listed apart in the source

B1: homoduplex AO4549/AO4548 (48-mer in Methods, called 49 bp in Results) (dsDNA)
DNA 1: CTGGACGGGTTAAGACCGAACGTGGCTCCAGAAACGGGTGCAACTGGG
DNA 2: CCCAGTTGCACCCGTTTCTGGAGCCACGTTCGGTCTTAACCCGTCCAG
In the case of B1, the Kd (Mlh1;Pms1 [1]) is reported as 173 nM, the Kd [2] is reported as 198 nM and the Kd [3] is reported as 211 nM. The Kd (Mlh1;Pms1 [4]) was 675 nM, the Kd [5] was 556 nM and the Kd [6] was 421 nM. The Kd [7] was 431 nM, the Kd (Mlh1;Pms1 [8]) was 141 nM and the Kd [9] was 287 nM. It also gave a Kd [10] of 98.4 nM, a Kd [11] of 207 nM and a Kd (Mlh1;Pms1 [12]) of 628 nM. For the same binder, the Kd [13] was 391 nM.
